Measured values from patent EP0251446B1, “Non-human Carbonyl hydrolase mutants, DNA sequences and vectors encoding same and hosts transformed with said vectors” (GENENCOR INTERNATIONAL, INC., priority 1986, dated 1988).
Positions count from the first letter of the chain named. Names may count otherwise.

B1: B. amyloliquefaciens subtilisin variant R166 (Gly166 to Arg) (Bacillus amyloliquefaciens; G273R) (protein)
chain: AQSVPYGVSQIKAPALHSQGYTGSNVKVAVIDSGIDSSHPDLKVAGGASMVPSETNPFQDNNSHGTHVAGTVAALNNSIGVLGVAPSASLYAVKVLGADGSGQYSWIINGIEWAIANNMDVINMSLGGPSGSAALKAAVDKAVASGVVVVAAAGNEGTSGSSSTVRYPGKYPSVIAVGAVDSSNQRASFSSVGPELDVMAPGVSIQSTLPGNKYGAYNGTSMASPHVAGAAALILSKHPNWTNTQVRSSLENTTTKLGDSFYYGKGLINVQAAAQ
notes: at various amino acid residues within the mature form of the subtilisin molecule; made in house; host or cells: Bacillus subtilis BG2036
B2: B. amyloliquefaciens subtilisin variant Q156 (Glu156 to Gln) (Bacillus amyloliquefaciens; E263Q) (protein)
chain: B1 chain with E156Q, R166G
notes: as for B1

Assays:
Format in all cases: biochemical, B. amyloliquefaciens
[1] = substrate: CSCC[C@H](NC(=O)[C@@H]1CCCN1C(=O)[C@H](C)NC(=O)[C@H](C)NC(=O)CCC(=O)O)C(=O)Nc1ccc([N+](=O)[O-])cc1; experiment: Kinetics of p-nitroanilide substrate hydrolysis, R166; details: other: Table XIV, 156 Glu / 166 Arg; value in parentheses; synthetic substrate with label as P-1 amino acid
Description: (§1) Wild-type subtilisin was purified from B. subtilis culture supernatants expressing the B. amyloliquefaciens subtilisin gene (Wells, J.A., et al. (1983) Nucleic Acids Res. 11, 7911-7925) as previously described (Estell, D.A., et al. (1985) J. Biol. Chem. 260, 6518-6521). Details of the synthesis of tetrapeptide substrates having the form succinyl-L-AlaL-AlaL-ProL-[X]-p-nitroanilide (where X is the P1 amino acid) are described by DelMar, E.G., et al. (1979) Anal. Biochem. 99, 316-320. Kinetic parameters, Km(M) and kcat-(s-^1) were measured using a modified progress curve analysis (Estell, D.A., et al. (1985) J. Biol. Chem. 260, 6518-6521). Briefly, plots of rate versus product concentration were fit to the differential form of the rate equation using a non-linear regression algorithm. Errors in kcat and Km for all values reported are less than five percent. The various substrates in Table VIII are ranged in order of decreasing hydrophobicity. Nozaki, Y. (1971), J. Biol. Chem. 246, 2211-2217; Tanford C. (1978) Science 200, 1012).
(§2) The construction of subtilisin mutants containing the substitution of the ionic amino acids Asp, Asn, Gln, Lys and Ang are disclosed in EPO Publication No. 0130756. The present example describes the construction of the mutant subtilisin containing Glu at position 166 (E166) and presents substrate specificity data on these mutants. Further data on position 166 and 156 single and double mutants is presented infra.
(§3) Each of these mutants was analyzed with the tetrapeptide substrates, succinyl-L-AlaL-AlaProL-X-p-nitroanilide, where X was Phe, Ala and Glu.

[2] = substrate: C[C@H](NC(=O)CCC(=O)O)C(=O)N[C@@H](C)C(=O)N1CCC[C@H]1C(=O)N[C@@H](CCCCN)C(=O)Nc1ccc([N+](=O)[O-])cc1; experiment: as above; details: other: Table XIV, 156 Glu / 166 Arg; value in parentheses; synthetic substrate with label as P-1 amino acid
Description: as §1, §2, §3

[3] = substrate: C[C@H](NC(=O)CCC(=O)O)C(=O)N[C@@H](C)C(=O)N1CCC[C@H]1C(=O)N[C@@H](CCC(N)=O)C(=O)Nc1ccc([N+](=O)[O-])cc1; experiment: as above; details: other: Table XIV, 156 Glu / 166 Arg; value in parentheses; synthetic substrate with label as P-1 amino acid
Description: as §1, §2, §3

[4] = substrate: C[C@H](NC(=O)CCC(=O)O)C(=O)N[C@@H](C)C(=O)N1CCC[C@H]1C(=O)N[C@@H](CCC(=O)O)C(=O)Nc1ccc([N+](=O)[O-])cc1; experiment: as above; details: other: Table XIV, 156 Glu / 166 Arg; value in parentheses; synthetic substrate with label as P-1 amino acid
Description: as §1, §2, §3

[5] = substrate: CSCC[C@H](NC(=O)[C@@H]1CCCN1C(=O)[C@H](C)NC(=O)[C@H](C)NC(=O)CCC(=O)O)C(=O)Nc1ccc([N+](=O)[O-])cc1; experiment: Kinetics of p-nitroanilide substrate hydrolysis, Q156; details: other: Table XIV, 156 Gln / 166 Gly; value in parentheses; synthetic substrate with label as P-1 amino acid; 37.0 °C
Description: as §1
(§4) Construction of position 156 single mutants were prepared by ligation of the three fragments (1-3) indicated at the bottom of Figure 21. Fragment 3, containing the carboxy-terminal portion of the subtilisin gene including the wild type position 166 codon, was isolated as a 610 bp Sacl-BamHI fragment. Fragment 1 contained the vector sequences, as well as the amino-terminal sequences of the subtilisin gene through codon 151. To produce fragment 1, a unique Kpnl site at codon 152 was introduced into the wild type subtilisin sequence from pS4.5. Site-directed mutagenesis in M13 employed a primer having the sequence 5'-TA-GTC-GTT-GCG-GTA-CCC-GGT-AAC-GAA-3' to produce the mutation. Enrichment for the mutant sequence was accomplished by restriction with Kpnl, purification and self ligation. The mutant sequence containing the Kpnl site was confirmed by direct plasmid sequencing to give pV152. pV152 (-1 µg) was digested with Kpnl and treated with 2 units of DNA polymerase I large fragment (Klenow fragment from Boeringer-Mannheim) plus 50 µM deoxynucleotide triphosphates at 37°C for 30 min. This created a blunt end that terminated with codon 151. The DNA was extracted with 1:1 volumes phenol and CHC13 and DNA in the aqueous phase was precipitated by addition of 0.1 volumes 5M ammonium acetate and two volumes ethanol. After centrifugation and washing the DNA pellet with 70% ethanol, the DNA was lyophilized. DNA was digested with BamHl and the 4.6kb piece (fragment 1) was purified by acrylamide gel electrophoresis followed by electroelution. […] The top strand was synthesized to contain a glutamine codon, and the complementary bottom strand coded for serine at 156. Ligation of heterophosphorylated cassettes leads to a large and favorable bias for the phosphorylated over the non-phosphorylated oligonucleotide sequence in the final segrated plasmid product. Therefore, to obtain Q156 the top strand was phosphorylated, and annealed to the non-phosphorylated bottom strand prior to ligation. Similarly, to obtain S156 the bottom strand was phosphorylated and annealed to the non-phosphorylated top strand. Mutant sequences were isolated after ligation and transformation, and were confirmed by restriction analysis and DNA sequencing as before. To express variant subtilisins, plasmids were transformed into a subtilisin-neutral protease deletion mutant of B. subtilis, BG2036, as previously described. Cultures were fermented in shake flasks for 24 h at 37 ° C in LB media containing […] chloramphenicol and subtilisin was purified from culture supernatants as described. Purity of subtilisin was greater than 95% as judged by SDS PAGE.
(§5) These mutant plasmids designated pS156 and pQ156 and mutant subtilisins designated S156 and Q156 were analyzed with the above synthetic substrates where P-1 comprised the amino acids Glu, Gln, Met and Lys. The results of this analyses are presented in Example 9. […]

[6] = substrate: C[C@H](NC(=O)CCC(=O)O)C(=O)N[C@@H](C)C(=O)N1CCC[C@H]1C(=O)N[C@@H](CCCCN)C(=O)Nc1ccc([N+](=O)[O-])cc1; experiment: as above; details: other: Table XIV, 156 Gln / 166 Gly; value in parentheses; synthetic substrate with label as P-1 amino acid; 37.0 °C
Description: as §1, §4, §5

[7] = substrate: C[C@H](NC(=O)CCC(=O)O)C(=O)N[C@@H](C)C(=O)N1CCC[C@H]1C(=O)N[C@@H](CCC(N)=O)C(=O)Nc1ccc([N+](=O)[O-])cc1; experiment: as above; details: other: Table XIV, 156 Gln / 166 Gly; value in parentheses; synthetic substrate with label as P-1 amino acid; 37.0 °C
Description: as §1, §4, §5

[8] = substrate: C[C@H](NC(=O)CCC(=O)O)C(=O)N[C@@H](C)C(=O)N1CCC[C@H]1C(=O)N[C@@H](CCC(=O)O)C(=O)Nc1ccc([N+](=O)[O-])cc1; experiment: as above; details: 37.0 °C
Description: as §1, §4, §5

[9] = substrate: C[C@H](NC(=O)CCC(=O)O)C(=O)N[C@@H](C)C(=O)N1CCC[C@H]1C(=O)N[C@@H](Cc1ccccc1)C(=O)Nc1ccc([N+](=O)[O-])cc1; experiment: as above; details: other: Table XIII, enzyme E156; synthetic substrate with label as P-1 residue; 37.0 °C
Description: as §1, §4, §5

[10] = other: Table XIII, enzyme E156, synthetic substrate with label as P-1 residue

Protein	Km [1] [µM]	Km [2] [µM]	Km [3] [µM]	Km [4] [µM]	Km [5] [µM]	Km [6] [µM]	Km [7] [µM]	Km [8, 10] [µM]	kcat [8, 10] [s-^1]	kcat/Km [8, 10] [M⁻¹ s⁻¹]	Km ([8]; other: Table XIV, 156 Gln / 166 Gly, value in parentheses, synthetic substrate with label as P-1 amino acid) [µM]	Km [9] [µM]	kcat [9] [s-^1]	kcat/Km [9] [M⁻¹ s⁻¹]
B1	60.3	1580	316	501										
B2					24.5	1510	155	3300	0.90	270	3310	45	48.00	1.1e+06
